Reference: publication PMC4032163

Key:
[1] = target: BG505 SOSIP.664 gp140 trimer (HIV-1 subtype A transmitted/founder virus BG505); assay: native gel or EMSA; BN-PAGE, Coomassie blue staining, of 2G12-affinity-purified Env proteins and of SEC-purified trimers from stable cell lines and transient transfection
[2] = target: uncleaved CZA97.012 gp140 (HIV-1 subtype C, CZA97.012 | not stated); assay: SEC

Substance	stoichiometry N [1]	stoichiometry N [2]
BG505 SOSIP.664 gp140 trimer (complex)	3	–
uncleaved CZA97.012 gp140	–	3
